This note sets out measurements from article PMC10986502.

The subject of the series is His6-Fur (Riemerella anatipestifer CH-1). The series is described as follows: EMSA. To be noted: 5 mM Mn2+ (surrogate for Fe2+); EMSA: 2.5% glycerol, 0.05% NP-40, 5 mM MgCl2, 1 uM ZnSO4, 5 mM MnCl2; 1 ug DNA, 2-8 ug Fur in 20 uL; room temperature 20 min; pH and salt not given; 6% native ….

As usually defined, the Kd is the constant that tells how readily two partners part at equilibrium. Turning to rhuB promoter (194 bp), the Kd was 4.3 nM.
